Consider two molecules from PMC3156282 (Bioorganic & medicinal chemistry letters, 2011).

Numbered stars: 1 amine (or outer) side, 2 acyl side, 3 side chain; on linkers, the order of the positions; unused ones are H or OH. Square brackets hold non-standard residues; d marks the D form. Side chains are listed from the residue outwards. 4‑DMNA = 4-N,N-dimethylamino-1,8-naphthalimido-alanine, CN(C)c1ccc2c3c(cccc13)C(=O)N(C[C@H](N[*:1])C(=O)[*:2])C2=O; 4‑DMN = 4-DMN: an environment-sensitive fluorophore; 9‑Å linker = not defined here

The term Kd denotes a measure of binding affinity in units of concentration. A high value points to weaker binding.

The test deals with Cdc42 (UniProt P60953 1-191). The experiment in a line: other fluorescence titration.
Chain of Cdc42 (P60953 whole entry): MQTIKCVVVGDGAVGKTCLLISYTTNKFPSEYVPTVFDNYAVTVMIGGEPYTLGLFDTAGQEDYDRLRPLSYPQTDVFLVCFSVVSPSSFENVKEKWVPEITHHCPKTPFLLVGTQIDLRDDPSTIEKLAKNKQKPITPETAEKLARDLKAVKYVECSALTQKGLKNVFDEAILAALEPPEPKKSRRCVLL

For the molecule GB1-KKKISKADIGAPSGFKHVSHVGWDPQNGFDVNNLDPDLRSLC([9‑Å linker-4‑DMN])SRAGIS-His6 (domain or fragment, UniProt P42768 230-277, looked up, not fully specified; reading uncertain) [4-DMN sensor 3 (GB1-WASP(230–277)-His6, Phe271Cys, Cys271 labeled with 4-DMN through a 9-Å linker)], the Kd was 341 ± 22 nM.

In the case of GB1-KKKISKADIGAPSGFKHVSHVGWDPQNGFDVNNLDPDLRCL[4‑DMNA]SRAGIS-His6 (domain or fragment), the Kd was found to be 385 ± 9 nM.
